Test results: patent publication US20110301073, “Novel DNA-binding proteins and uses thereof” (Sangamo BioSciences, Inc., published 2011)

Tests used:
TALE13 +79 FokI = biological target: T1, TALE13 +79 FokI (Xanthomonas axonopodis (engineered)); experiment: cleavage_in_vitro; two inverted sites, 16 bp gap; NEB Buffer 2, 37 C; details: tags: FLAG, NLS, chain copies: 2
T1 chain: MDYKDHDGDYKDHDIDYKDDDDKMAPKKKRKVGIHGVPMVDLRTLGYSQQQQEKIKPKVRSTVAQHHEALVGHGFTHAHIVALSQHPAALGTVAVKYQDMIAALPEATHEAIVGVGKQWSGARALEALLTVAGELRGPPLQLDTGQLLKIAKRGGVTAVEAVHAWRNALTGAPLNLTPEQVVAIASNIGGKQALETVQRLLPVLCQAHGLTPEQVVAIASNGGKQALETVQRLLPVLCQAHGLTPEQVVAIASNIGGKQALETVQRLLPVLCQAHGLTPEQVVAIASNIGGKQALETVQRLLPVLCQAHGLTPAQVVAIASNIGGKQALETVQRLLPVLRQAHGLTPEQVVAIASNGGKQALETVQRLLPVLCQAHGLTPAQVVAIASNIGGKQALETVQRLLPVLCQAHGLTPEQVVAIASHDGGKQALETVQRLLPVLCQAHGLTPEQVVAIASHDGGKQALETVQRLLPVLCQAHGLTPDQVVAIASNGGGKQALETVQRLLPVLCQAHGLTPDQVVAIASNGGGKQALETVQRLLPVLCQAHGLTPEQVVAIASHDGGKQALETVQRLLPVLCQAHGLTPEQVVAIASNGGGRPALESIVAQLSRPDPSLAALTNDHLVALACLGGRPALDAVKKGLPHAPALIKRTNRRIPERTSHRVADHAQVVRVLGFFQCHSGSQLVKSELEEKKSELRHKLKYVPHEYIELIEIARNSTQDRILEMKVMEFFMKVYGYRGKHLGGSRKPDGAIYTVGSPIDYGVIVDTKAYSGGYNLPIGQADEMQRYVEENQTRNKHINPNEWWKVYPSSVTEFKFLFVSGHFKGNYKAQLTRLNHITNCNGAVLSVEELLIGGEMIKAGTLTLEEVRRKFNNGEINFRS
Method: (§1) TALE domain fusions were also constructed using Fold cleavage half domains. For these examples, wild type FokI half cleavage domains were used so that for nuclease activity, a homodimer must be formed from two of the fusions. For these fusions, the TALE13 DNA binding domain was fused to each FokI half domain by cloning the TALE DNA binding domain into a plasmid adjacent to FokI-specifying sequence. In addition, various linkers were tested for use between the DNA binding domain and the nuclease domain. Linkers L2 and L8 were used which are as follows: L2=GS (SEQ ID NO:71) and L8=[…] (SEQ ID NO:72). The target sites were cloned into a TOPO2.1 target vector (Invitrogen) with varying gap spacings between each target binding site such that the two were separated from each other by 2 to 22 bp. PCR amplification of an approximately 1 kb region of the target vector was done to generate the target DNAs. The TALE DNA binding domains were also truncated as described previously, and are described using the same nomenclature as described above in Examples 2 and 6. The TALE domain nuclease fusion clones were expressed in the TNT Rabbit Reticulocyte Lysate system by adding 5 μL of water containing 250 nanograms of the nuclease fusion clone plasmid to 20 μL of lysate and incubating at 30° C. for 90 minutes.
(§2) The lysate was then used to cleave the target DNAs as follows: 2.5 μL of lysate were added to a 50 μL reaction containing 50 nanograms of PCR-amplified target DNA and a final Buffer 2 (New England Biolabs) concentration of 1×. The cleavage reaction was for one hour at 37° C., followed by a 20 minute heat inactivation stage at 65° C. The reaction was then centrifuged at high speed to separate the target DNA from the lysate, causing the lysate to condense into a pellet in the reaction well. The DNA-containing supernatant was pipetted off and run on an ethidium bromide-stained agarose gel (Invitrogen) to separate intact target DNA from cleaved target DNA. The agarose gel was then analyzed using AlphaEaseFC (Alpha Innotech) software to measure the amount of target DNA present in the large uncleaved DNA band and the two smaller DNA bands resulting from a single cleavage event of the target DNA. The percentage of cleaved DNA out of the total amount of target DNA loaded into the gel represents the percent cleavage in each reaction.

TALE13 +63 FokI = biological target: T2, TALE13 +63 FokI (Xanthomonas axonopodis (engineered)); experiment: as above; details: tags: FLAG, NLS, chain copies: 2
T2 chain: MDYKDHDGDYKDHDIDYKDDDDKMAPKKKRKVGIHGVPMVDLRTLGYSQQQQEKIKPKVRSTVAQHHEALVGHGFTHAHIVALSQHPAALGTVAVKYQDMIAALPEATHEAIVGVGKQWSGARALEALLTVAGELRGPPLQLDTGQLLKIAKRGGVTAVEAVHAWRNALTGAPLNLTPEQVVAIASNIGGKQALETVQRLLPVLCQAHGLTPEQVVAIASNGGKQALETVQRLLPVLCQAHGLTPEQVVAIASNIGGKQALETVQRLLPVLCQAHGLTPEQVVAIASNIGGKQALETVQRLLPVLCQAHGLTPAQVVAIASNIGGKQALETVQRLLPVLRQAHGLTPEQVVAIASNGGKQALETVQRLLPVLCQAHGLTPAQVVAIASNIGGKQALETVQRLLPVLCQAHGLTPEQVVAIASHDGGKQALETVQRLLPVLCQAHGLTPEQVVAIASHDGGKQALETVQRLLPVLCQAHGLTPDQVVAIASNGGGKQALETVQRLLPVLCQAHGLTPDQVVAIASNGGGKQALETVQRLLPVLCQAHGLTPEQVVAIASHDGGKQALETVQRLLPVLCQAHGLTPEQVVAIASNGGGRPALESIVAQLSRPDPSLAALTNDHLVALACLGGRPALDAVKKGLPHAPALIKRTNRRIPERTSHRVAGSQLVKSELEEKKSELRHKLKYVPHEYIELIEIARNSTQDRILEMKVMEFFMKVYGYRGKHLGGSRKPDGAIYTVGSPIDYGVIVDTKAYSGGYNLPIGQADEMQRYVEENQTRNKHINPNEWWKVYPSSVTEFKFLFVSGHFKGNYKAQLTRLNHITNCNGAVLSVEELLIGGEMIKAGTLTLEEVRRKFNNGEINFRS
Method: as §1, §2

B1: TALE13 target (dsDNA)
DNA 1: TATAAATACCTTCT
DNA 2: AGAAGGTATTTATA
**Q.** What does the source list for B1?
**A.** activity (TALE13 +79 FokI): 56 % cleavage; activity (TALE13 +63 FokI): 70 % cleavage
